The text below walks through data of article PMC11742385, “Selection and Characterization of a DNA Aptamer Recognizing High Mobility Group Box 1 Protein (HMGB1) and Enhancing Its Pro-inflammatory Activity”.

For one series, the target named is rhHMGB1 (Homo sapiens, UniProt P09429 1-215). Put plainly: microplate aptamer binding assay (streptavidin-HRP); 1 mM Mg2+, 1 mM Ca2+; SHMCK: 20 mM Hepes, 120 mM NaCl, 5 mM KCl, 1 mM MgCl2, 1 mM CaCl2, pH 7.4, 37 C, 1 h; protein coated 2 pmol/well, 3% BSA block, PBST washes. To be noted: protein: recombinant; tags: His tag implied (pET28a, Ni-NTA); predicted hairpin (9-50) and stem-loops (52-69) linked by a T.
rhHMGB1, sequence (P09429 whole entry): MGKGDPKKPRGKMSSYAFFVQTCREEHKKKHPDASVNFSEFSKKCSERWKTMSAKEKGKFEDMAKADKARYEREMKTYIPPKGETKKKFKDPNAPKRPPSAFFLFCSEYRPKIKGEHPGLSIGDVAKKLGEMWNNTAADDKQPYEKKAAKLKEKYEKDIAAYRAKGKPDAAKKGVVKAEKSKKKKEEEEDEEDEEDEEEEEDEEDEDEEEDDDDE

The target in a further series is T1, rhHMGB2 (UniProt P26583 1-209).
T1 sequence: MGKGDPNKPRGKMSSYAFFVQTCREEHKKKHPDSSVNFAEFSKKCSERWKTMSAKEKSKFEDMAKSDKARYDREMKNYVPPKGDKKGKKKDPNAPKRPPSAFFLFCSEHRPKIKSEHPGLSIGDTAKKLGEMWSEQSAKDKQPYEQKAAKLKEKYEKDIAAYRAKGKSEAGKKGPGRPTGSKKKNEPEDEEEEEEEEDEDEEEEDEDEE
Briefly: microplate aptamer binding assay; 1 mM Mg2+, 1 mM Ca2+; 5 nM aptamer; SHMCK: 20 mM Hepes, 120 mM NaCl, 5 mM KCl, 1 mM MgCl2, 1 mM CaCl2, pH 7.4, 37 C, 1 h; protein coated 2 pmol/well, 3% BSA block, PBST washes. Particulars: protein: commercial; predicted hairpin (9-50) and stem-loops (52-69) linked by a T.

The target in another series is T2, rhHMGB1 A box (Homo sapiens, UniProt P09429 9-79).
T2 sequence: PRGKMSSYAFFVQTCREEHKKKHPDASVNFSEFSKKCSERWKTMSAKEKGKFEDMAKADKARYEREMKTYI
Briefly: microplate aptamer binding assay; dot blot; 1 mM Mg2+, 1 mM Ca2+; 5 nM aptamer (microplate); SHMCK: 20 mM Hepes, 120 mM NaCl, 5 mM KCl, 1 mM MgCl2, 1 mM CaCl2, pH 7.4, 37 C, 1 h; protein coated 2 pmol/well, 3% BSA block, PBST washes. Particulars: protein: recombinant; tags: His tag implied (pET28a, Ni-NTA); predicted hairpin (9-50) and stem-loops (52-69) linked by a T.

B1: H-ap25 (structured_DNA)
DNA: GGACAAGAATCACCGCTCTGGGTTTGGCGTCGGGCCTGGCGAAAGGTGGTTGTGCGGAGAGAGCGTACAGGAGGCATACAG
As to B1, the dissociation constant (Kd) – broadly, a measure of binding affinity in units of concentration – in the series with rhHMGB1 was 8.2 ± 0.53 nM. The binding result with rhHMGB2 and in the series with rhHMGB1 A box was “no binding” throughout.
